Values quoted from earlier work, collected in paper PMC6426597.

Biological target: CD40 (Homo sapiens) (UniProt P25942)
Chain of UniProt P25942 (P25942 21-193): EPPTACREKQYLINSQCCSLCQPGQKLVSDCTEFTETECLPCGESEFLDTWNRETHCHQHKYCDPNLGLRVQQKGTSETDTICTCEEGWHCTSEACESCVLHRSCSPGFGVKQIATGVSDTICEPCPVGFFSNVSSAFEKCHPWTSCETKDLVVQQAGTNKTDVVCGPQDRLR

In the case of TSST-1 (from UniProt P06886), the Kd is given as 2700 nM.
